Measured values reported in publication PMC11324726, “Structural dynamics of protein-protein association involved in the light-induced transition of Avena sativa LOV2 protein” (Nature Communications, 2024).

Tests used:
[1] = biological target: the molecule itself; assay: time-resolved X-ray liquidography (TRXL, TR-SAXS/WAXS); in solution; ns laser pump at 450 nm, X-ray probe; 1.5 mM protein in 20 mM Tris pH 7.0, 200 mM NaCl, 293 K; monomers (I2) to dimer (P); kinetic analysis by SVD and KCA, structural analysis aided by MD
[2] = biological target: the molecule itself; assay: SEC; light state; monomer and dimer fractions by elution volume; conditions in Supplementary Note 3 and Supplementary Methods (not shown)

Row | Protein | stoichiometry N [1] | stoichiometry N [2]
1 | AsLOV2 (residue 404-546) I427V mutant (domain or fragment, Avena sativa, UniProt O49003 404-546, looked up, Avena sativa phototropin 1, residues 404-546, with I427V (faster photocycle); Carries FMN; Cys-FMN photoadduct in the light state; also called AsLOV2 I427V) LATTLERIEKNFVITDPRLPDNPVIFASDSFLQLTEYSREEILGRNCRFLQGPETDRATVRKIRDAIDNQTEVTVQLINYTKSGKKFWNLFHLQPMRDQKGDVQYFIGVQLDGTEHVRDAAEREGVMLIKKTAENIDEAAKEL | 2 | –
2 | Avena sativa phototropin 1 LOV2 domain with A'α and Jα helices (residue 404-546), wild type (domain or fragment, UniProt O49003 404-546, looked up, Avena sativa phototropin 1 (AsPhot1), A'α helix (404-412) + LOV2 core (413-520) + Jα helix (521-546), residues 404-546; Carries FMN as chromophore; in the light state a Cys-FMN photoadduct is formed; also called AsLOV2; AsLOV2 WT) LATTLERIEKNFVITDPRLPDNPIIFASDSFLQLTEYSREEILGRNCRFLQGPETDRATVRKIRDAIDNQTEVTVQLINYTKSGKKFWNLFHLQPMRDQKGDVQYFIGVQLDGTEHVRDAAEREGVMLIKKTAENIDEAAKEL | – | 2
